# Measurements taken from paper PMC9504981.
# Target: 10×Histidine-tagged amino acids 1-416 of potato virus X RNA-dependent RNA polymerase, 10×His-MET_(1-416) (potato virus X)
# Assay: cross-linking
substance,measurement,value
"10×Histidine-tagged amino acids 1-416 of potato virus X RNA-dependent RNA polymerase, 10×His-MET_(1-416) (domain or fragment)",stoichiometry N,> 5
